Data taken from article PMC4917244.

Columns and labels:
[1] = target: T1, Ros1WOPR-His (Ustilago maydis (FB1?)) (UniProt A0A0D1BVT7); assay: EMSA
T1 sequence: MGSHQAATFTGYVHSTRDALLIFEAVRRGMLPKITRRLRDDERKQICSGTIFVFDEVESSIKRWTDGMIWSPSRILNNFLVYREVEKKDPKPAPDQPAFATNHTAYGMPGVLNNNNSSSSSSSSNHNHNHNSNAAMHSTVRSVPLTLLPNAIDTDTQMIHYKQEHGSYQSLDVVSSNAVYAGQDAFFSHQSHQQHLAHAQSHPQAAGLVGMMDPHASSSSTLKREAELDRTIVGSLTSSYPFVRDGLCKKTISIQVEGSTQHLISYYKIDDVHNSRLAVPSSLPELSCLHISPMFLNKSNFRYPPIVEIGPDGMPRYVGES

[2] = target: T1, Ros1WOPR-His (Ustilago maydis (FB1?)); assay: competition EMSA

“CGCCAGAGACAAGTACTGTTCCCAATTCGGAGCTTCGCCGTGAACCACGAATTCATGCATTTCCATATTGGCAAAATATTAAAAAATTGAGGGTTTTGGCGTTGGCCTTTTGAGAGTTTATTTTAGATTTAATTAAGTGATTATGAGGATGATTCTTTTTCTTCATCTTCCTGTAACCGTCACCTGCCACGCTTGCCTAGACGCAGCAGTATCCACTCCGTAGGCGTATGCTATTGT (double strand) [WT-probe (ros1 promoter)]” was tested, and the binding [1] was “binds”.
For “CGCCAGAGACAAGTACTGTTCCCAATTCGGAGCTTCGCCGTGAACCACGAATTCATGCATTTCCATATTGGCAAAATATTAAAAAATTGAGGGTTTTGGCGTTGGCCTTTTGAGAGTTTATTTTAGATTTAATTAAGTGATTATGAGGATGATTCTTTTTCTTCATCTTCCTGTAACCGTCACCTGCCACGCTTGCCTAGACGCAGCAGTATCCACTCCGTAGGCGTATGCTATTGT (double strand) [WT-probe unlabeled competitor]”, the binding [2] was “binds”.
